Holding throughout (assay): cell-based or functional assay
For test [1], the target named is T1, human GIP receptor (human) (UniProt P48546).
T1 sequence (looked up): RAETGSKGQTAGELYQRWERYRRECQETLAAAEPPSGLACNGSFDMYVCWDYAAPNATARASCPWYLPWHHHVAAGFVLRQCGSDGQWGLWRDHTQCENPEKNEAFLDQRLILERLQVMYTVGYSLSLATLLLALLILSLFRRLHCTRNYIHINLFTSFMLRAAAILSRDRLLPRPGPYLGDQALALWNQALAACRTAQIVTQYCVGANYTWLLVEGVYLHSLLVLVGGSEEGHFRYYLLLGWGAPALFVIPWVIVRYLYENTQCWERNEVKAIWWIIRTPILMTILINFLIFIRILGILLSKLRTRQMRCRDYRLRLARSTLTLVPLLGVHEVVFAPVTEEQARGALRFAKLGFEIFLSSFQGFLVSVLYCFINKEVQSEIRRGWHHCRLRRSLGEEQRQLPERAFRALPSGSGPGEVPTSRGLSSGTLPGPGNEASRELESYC

In test [2] the target is human glucagon receptor (human) (UniProt P47871).
The target of test [3] is hGLP-1R (Homo sapiens, UniProt P43220).

Starred links: 1 amine or outer side, 2 acyl side, 3 side chain; linkers in the order of their positions; H or OH if unused. Non-standard residues stand in square brackets, D forms with d. Groups on a side chain read outwards from the residue. No end group written: not given here. *: point of attachment. C18 diacid = O=C(O)CCCCCCCCCCCCCCCCC(=O)*; γGlu = O=C(O)[C@H](CCC(=O)[*:2])N[*:1]; αMeL = CC(C)C[C@](C)(N)C(=O)O; Dap = NC[C@H](N)C(=O)O; Aib = CC(C)(N)C(=O)O

hGLP-1R, sequence (P43220 24-463): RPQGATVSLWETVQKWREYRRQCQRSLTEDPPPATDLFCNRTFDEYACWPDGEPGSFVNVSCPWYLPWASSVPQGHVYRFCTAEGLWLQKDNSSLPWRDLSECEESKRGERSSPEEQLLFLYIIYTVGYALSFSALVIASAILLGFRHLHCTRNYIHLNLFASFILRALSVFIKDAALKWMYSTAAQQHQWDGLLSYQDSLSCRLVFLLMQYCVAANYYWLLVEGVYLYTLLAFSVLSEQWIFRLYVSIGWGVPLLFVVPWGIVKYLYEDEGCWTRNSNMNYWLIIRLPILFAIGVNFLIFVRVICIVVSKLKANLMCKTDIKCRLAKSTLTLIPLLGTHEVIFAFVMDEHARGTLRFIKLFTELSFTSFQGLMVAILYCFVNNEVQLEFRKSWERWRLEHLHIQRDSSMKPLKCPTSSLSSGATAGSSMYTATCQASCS
human glucagon receptor (human), sequence (P47871 26-477): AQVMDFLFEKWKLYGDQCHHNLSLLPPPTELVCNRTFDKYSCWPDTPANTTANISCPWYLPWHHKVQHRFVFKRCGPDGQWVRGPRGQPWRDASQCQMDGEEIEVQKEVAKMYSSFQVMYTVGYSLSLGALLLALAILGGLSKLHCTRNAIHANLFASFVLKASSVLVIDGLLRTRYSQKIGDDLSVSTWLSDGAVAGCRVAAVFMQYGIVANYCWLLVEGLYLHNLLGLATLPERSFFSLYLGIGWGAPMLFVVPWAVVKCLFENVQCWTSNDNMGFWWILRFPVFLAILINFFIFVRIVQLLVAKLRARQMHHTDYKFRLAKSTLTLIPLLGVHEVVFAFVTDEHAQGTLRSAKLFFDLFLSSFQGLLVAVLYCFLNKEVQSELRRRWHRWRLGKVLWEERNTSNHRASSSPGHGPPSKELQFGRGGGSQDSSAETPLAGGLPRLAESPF

B1: Example 807 (peptide)
chain: YXQGTFTSDXSRXLDKKAQXAFIEYLIEXSPSSGAPPPSGS
modifications: synthetic construct; SITE 2: note = 2-Aminoisobutyric Acid; SITE 10: note = 3-(4-Pyridyl)-L-alanine; SITE 13: note = alpha-methyl-leucine; SITE 17: note = Lysine is chemically modified through conjugation of the epsilon-amino group of the Lysine side chain with (2-[2-(2-Amino-ethoxy)-ethoxy]-acetyl)
B1: the values for the Relative cAMP EC50 in test [1], in test [2] and in test [3] were 0.108 nM, 12.4 nM and 1.72 nM, respectively.

B2: Example 1120 (peptide)
chain: YXQGTFTSDXSQXLDKKAQXAFIEXLIEXGPSSGAPPPSGE
modifications: Aib, 4Pal, αMeL, Me4Pal; acylated K; C-terminal amide; synthetic construct; SITE 2: note = 2-Aminoisobutyric Acid; SITE 10: note = 3-(4-Pyridyl)-L-alanine; SITE 13: note = alpha-methyl-leucine; SITE 17: note = Lysine is chemically modified through conjugation of the epsilon-amino group of the Lysine side chain with (gamma-Glu)2-CO-(CH2)16-CO2H; SITE 20:
Take B2: the Relative cAMP EC50 is 0.096 nM in test [1], 5.17 nM in test [2] and 4.5 nM in test [3].

B3: Example 872 (peptide)
chain: YXQGTFTSDXSQXLDKKAQXAFIEWLIEGGPSSGAPPPSGS
modifications: synthetic construct; SITE 2: note = 2-Aminoisobutyric Acid; SITE 10: note = 3-(4-Pyridyl)-L-alanine; SITE 13: note = alpha-methyl-leucine; SITE 17: note = Lysine is chemically modified through conjugation of the epsilon-amino group of the Lysine side chain with (gamma-Glu)2-CO-(CH2)16-CO2H; SITE 20:
Consider B3, for which the Relative cAMP EC50 in test [1] came out at 0.205 nM; in test [2], 4.18 nM; in test [3], 1.01 nM.

B4: Example 941 (peptide)
chain: YXQGTFTSDXSXXLDKKAQXAFIEXLIEGGPSSGAPPPSGS
modifications: synthetic construct; SITE 2: note = 2-Aminoisobutyric Acid; SITE 10: note = 3-(4-Pyridyl)-L-alanine; SITE 12: note = L-ornithine; SITE 13: note = alpha-methyl-leucine; SITE 17: note = Lysine is chemically modified through conjugation of the epsilon-amino group of the Lysine side chain with (gamma-Gl)
Turning to B4, the Relative cAMP EC50 stood at 0.183 nM in test [1], 11.7 nM in test [2] and 0.764 nM in test [3].

B5: Example 876 (peptide)
chain: YXQGTFTSDFSQXLDKKAQXAFIEYLIAGGPSSGAPPPSGS
modifications: not fully specified; synthetic construct; SITE 2: note = 2-Aminoisobutyric Acid; SITE 13: note = alpha-methyl-leucine; SITE 17: note = Lysine is chemically modified through conjugation of the epsilon-amino group of the Lysine side chain with (gamma-Glu)2-CO-(CH2)16-CO2H; SITE 20: note = 3-(4-Pyridyl)-L-alanine; SITE 41:
As to B5, the Relative cAMP EC50 in test [1] amounted to 0.053 nM; in test [2], 3.28 nM; in test [3] it was 0.456 nM.

B6: Example 942 (peptide)
chain: YXQGTFTSDXSXXLDKKAQXAFIEXLLEGGPSSGAPPPSGS
modifications: synthetic construct; SITE 2: note = 2-Aminoisobutyric Acid; SITE 10: note = 3-(4-Pyridyl)-L-alanine; SITE 12: note = L-ornithine; SITE 13: note = alpha-methyl-leucine; SITE 17: note = Lysine is chemically modified through conjugation of the epsilon-amino group of the Lysine side chain with (gamma-Gl)
With B6, the Relative cAMP EC50 in test [1] turned out to be 0.188 nM; in test [2], 6.32 nM; in test [3], 3.52 nM.

B7: Example 938 (peptide)
chain: YXQGTFTSDXSQXLDKKAQXAFIEXLLEGGPSSGAPPPSGS
modifications: synthetic construct; SITE 2: note = 2-Aminoisobutyric Acid; SITE 10: note = 3-(4-Pyridyl)-L-alanine; SITE 13: note = alpha-methyl-leucine; SITE 17: note = Lysine is chemically modified through conjugation of the epsilon-amino group of the Lysine side chain with (gamma-Glu)2-CO-(CH2)16-CO2H; SITE 20:
Turning to B7, the values for the Relative cAMP EC50 in test [1], in test [2] and in test [3] were 0.13 nM, 13.3 nM and 1.84 nM, respectively.

B8: Example 875 (peptide)
chain: YXQGTFTSDFSQXLDKKAQXAFIEYLIAGGPSSGAPPPSGS
modifications: synthetic construct; SITE 2: note = 2-Aminoisobutyric Acid; SITE 13: note = alpha-methyl-leucine; SITE 17: note = Lysine is chemically modified through conjugation of the epsilon-amino group of the Lysine side chain with (2-[2-(2-Amino-ethoxy)-ethoxy]-acetyl)-(gamma-Glu)-CO-(CH2) 16-CO2H; SITE 20: n
As for B8, the Relative cAMP EC50 is 0.101 nM in test [1], 3.65 nM in test [2] and 0.771 nM in test [3].

B9: Example 841 (peptide)
chain: YXQGTFTSDFSQXLDKKAQXAFIEXLIEGGPSSGAPPPSGS
modifications: synthetic construct; SITE 2: note = 2-Aminoisobutyric Acid; SITE 13: note = alpha-methyl-leucine; SITE 17: note = Lysine is chemically modified through conjugation of the epsilon-amino group of the Lysine side chain with (2-[2-(2-Amino-ethoxy)-ethoxy]-acetyl)-(gamma-Glu)-CO-(CH2) 16-CO2H; SITE 20: n
For the molecule B9, the Relative cAMP EC50 in test [1] was 0.194 nM; in test [2] it was 9.71 nM; in test [3], 0.336 nM.

B10: Example 203 (peptide)
chain: Y[Aib]QGTFTSDFS[Dap][αMeL]LDKK([γGlu-γGlu-C18 diacid])AQ[Aib]AFIEYLLE[Aib]GPSSGAPPPSGS-NH2
Turning to B10, the cAMP Rel EC50, nM (1% HSA) came to 19 nM in test [1], 1160 nM in test [2] and 532 nM in test [3].

B11: Example 891 (peptide)
chain: YXQGTFTSDXSQXLDKKAQXAFIEYLIEXGPSSGAPPPSGSGE
modifications: not fully specified; possible C-terminal amide; synthetic construct; SITE 2: note = 2-Aminoisobutyric Acid; SITE 10: note = 3-(4-Pyridyl)-L-alanine; SITE 13: note = alpha-methyl-leucine; SITE 17: note = Lysine is chemically modified through conjugation of the epsilon-amino group of the Lysine side chain with (gamma-Glu)2-CO-(CH2)16-CO2H; SITE 20:
For the molecule B11, the figures for the Relative cAMP EC50 in test [1], in test [2] and in test [3] were 0.155 nM, 3.14 nM and 3.25 nM, respectively.

B12: Example 1109 (peptide)
chain: YXQGTFTSDXSQXLDXKAQXQFIEXLIEXGPSSGAPPPSGSEE
modifications: Aib, 4Pal, αMeL, Orn, Me4Pal, αMeY; acylated lysine; amide; synthetic construct; SITE 2: note = 2-Aminoisobutyric Acid; SITE 10: note = 3-(4-Pyridyl)-L-alanine; SITE 13: note = alpha-methyl-leucine; SITE 16: note = L-ornithine; SITE 17: note = Lysine is chemically modified through conjugation of the epsilon-amino group of the Lysine side chain with (2-[2-(2-
On to B12, for which the Relative cAMP EC50 in test [1] is 0.0626 nM; in test [2], 10.8 nM; in test [3], 2.3 nM.

B13: Example 1108 (peptide)
chain: YXQGTFTSDXSQXLDXKAQXAFIEXLIEXGPSSGAPPPSGSEE
modifications: non-natural residues; C18 diacid-γGlu-AEEA on Lys; C-terminal amide; synthetic construct; SITE 2: note = 2-Aminoisobutyric Acid; SITE 10: note = 3-(4-Pyridyl)-L-alanine; SITE 13: note = alpha-methyl-leucine; SITE 16: note = L-ornithine; SITE 17: note = Lysine is chemically modified through conjugation of the epsilon-amino group of the Lysine side chain with (2-[2-(2-
For the molecule B13, the Relative cAMP EC50 in test [1] was determined as 0.0507 nM; in test [2], 4.96 nM; in test [3], 0.752 nM.

B14: Example 1117 (peptide)
chain: YXQGTFTSDXSQXLDKKAQXAFIEXLIEXGPSSGAPPPSGTGE
modifications: non-natural residues; Lys acylated AEEA-γGlu-C18 diacid; C-terminal amide; synthetic construct; SITE 2: note = 2-Aminoisobutyric Acid; SITE 10: note = 3-(4-Pyridyl)-L-alanine; SITE 13: note = alpha-methyl-leucine; SITE 17: note = Lysine is chemically modified through conjugation of the epsilon-amino group of the Lysine side chain with (2-[2-(2-Amino-ethoxy)-ethoxy]-acetyl)
With B14, the Relative cAMP EC50 in test [1] is 0.124 nM; in test [2] it was 4.93 nM; in test [3], 3.51 nM.

B15: Example 937 (peptide)
chain: YXQGTFTSDXSQXLDXKAQXAFIEYLIEXGPSSGAPPPSGSEE
modifications: synthetic construct; SITE 2: note = 2-Aminoisobutyric Acid; SITE 10: note = 3-(4-Pyridyl)-L-alanine; SITE 13: note = alpha-methyl-leucine; SITE 16: note = L-ornithine; SITE 17: note = Lysine is chemically modified through conjugation of the epsilon-amino group of the Lysine side chain with (gamma-Gl)
As for B15, the Relative cAMP EC50 in test [1] amounted to 0.222 nM; in test [2] it was 5.52 nM; in test [3], 2.52 nM.

B16: Example 945 (peptide)
chain: YXQGTFTSDXSQXLDKKAQXAFIEXLLEGGPSSGAPPPSGSEE
modifications: synthetic construct; SITE 2: note = 2-Aminoisobutyric Acid; SITE 10: note = 3-(4-Pyridyl)-L-alanine; SITE 13: note = alpha-methyl-leucine; SITE 17: note = Lysine is chemically modified through conjugation of the epsilon-amino group of the Lysine side chain with (gamma-Glu)2-CO-(CH2)16-CO2H; SITE 20:
B16: the figures for the Relative cAMP EC50 in test [1], in test [2] and in test [3] were 0.246 nM, 18 nM and 3.9 nM, respectively.

These data come from patent publication US20240270821A1, “GIP/GLP1/GCG TRI-RECEPTOR AGONISTS AND USES THEREOF” (priority 2023, published 2024).
